From patent US20150344540A1, “NOVEL GLP-1 RECEPTOR AGONISTS WITH CHOLESTEROL EFFLUX ACTIVITY” (NOVO NORDISK A/S, priority 2012, published 2015)
Where no end group is shown, it is not given here. [ ]: non-standard residue; d: D form. Aib = CC(C)(N)C(=O)O

B1: [Aib2,Glu21,Lys29,Aib30,Leu31,Glu32,Leu34,Glu35,Leu36,Leu37]-Exendin-4-(1-37)-peptide amide (peptide)
peptide: H[Aib]EGTFTSDLSKQMEEEAVREFIEWLKNK[Aib]LESLELL-NH2
modifications: N-terminus assumed
SMILES: CC[C@H](C)[C@H](NC(=O)[C@H](Cc1ccccc1)NC(=O)[C@H](CCC(=O)O)NC(=O)[C@H](CCCNC(=N)N)NC(=O)[C@@H](NC(=O)[C@H](C)NC(=O)[C@H](CCC(=O)O)NC(=O)[C@H](CCC(=O)O)NC(=O)[C@H](CCC(=O)O)NC(=O)[C@H](CCSC)NC(=O)[C@H](CCC(N)=O)NC(=O)[C@H](CCCCN)NC(=O)[C@H](CO)NC(=O)[C@H](CC(C)C)NC(=O)[C@H](CC(=O)O)NC(=O)[C@H](CO)NC(=O)[C@@H](NC(=O)[C@H](Cc1ccccc1)NC(=O)[C@@H](NC(=O)CNC(=O)[C@H](CCC(=O)O)NC(=O)C(C)(C)NC(=O)[C@@H](N)Cc1c[nH]cn1)[C@@H](C)O)[C@@H](C)O)C(C)C)C(=O)N[C@@H](CCC(=O)O)C(=O)N[C@@H](Cc1c[nH]c2ccccc12)C(=O)N[C@@H](CC(C)C)C(=O)N[C@@H](CCCCN)C(=O)N[C@@H](CC(N)=O)C(=O)N[C@@H](CCCCN)C(=O)NC(C)(C)C(=O)N[C@@H](CC(C)C)C(=O)N[C@@H](CCC(=O)O)C(=O)N[C@@H](CO)C(=O)N[C@@H](CC(C)C)C(=O)N[C@@H](CCC(=O)O)C(=O)N[C@@H](CC(C)C)C(=O)N[C@@H](CC(C)C)C(N)=O
B2: [Aib2,Glu21,Lys29,Aib30,Leu31,Glu32,Phe33,Glu35,Leu36,Leu37]-Exendin-4-(1-37)-peptide amide (peptide)
peptide: H[Aib]EGTFTSDLSKQMEEEAVREFIEWLKNK[Aib]LEFGELL-NH2
modifications: N-terminus assumed
SMILES: CC[C@H](C)[C@H](NC(=O)[C@H](Cc1ccccc1)NC(=O)[C@H](CCC(=O)O)NC(=O)[C@H](CCCNC(=N)N)NC(=O)[C@@H](NC(=O)[C@H](C)NC(=O)[C@H](CCC(=O)O)NC(=O)[C@H](CCC(=O)O)NC(=O)[C@H](CCC(=O)O)NC(=O)[C@H](CCSC)NC(=O)[C@H](CCC(N)=O)NC(=O)[C@H](CCCCN)NC(=O)[C@H](CO)NC(=O)[C@H](CC(C)C)NC(=O)[C@H](CC(=O)O)NC(=O)[C@H](CO)NC(=O)[C@@H](NC(=O)[C@H](Cc1ccccc1)NC(=O)[C@@H](NC(=O)CNC(=O)[C@H](CCC(=O)O)NC(=O)C(C)(C)NC(=O)[C@@H](N)Cc1c[nH]cn1)[C@@H](C)O)[C@@H](C)O)C(C)C)C(=O)N[C@@H](CCC(=O)O)C(=O)N[C@@H](Cc1c[nH]c2ccccc12)C(=O)N[C@@H](CC(C)C)C(=O)N[C@@H](CCCCN)C(=O)N[C@@H](CC(N)=O)C(=O)N[C@@H](CCCCN)C(=O)NC(C)(C)C(=O)N[C@@H](CC(C)C)C(=O)N[C@@H](CCC(=O)O)C(=O)N[C@@H](Cc1ccccc1)C(=O)NCC(=O)N[C@@H](CCC(=O)O)C(=O)N[C@@H](CC(C)C)C(=O)N[C@@H](CC(C)C)C(N)=O
B3: [Aib2,Glu21,Lys29,Aib30,Leu31,Glu32,Phe33,Leu34,Glu35,Leu37]-Exendin-4-(1-37)-peptide amide (peptide)
peptide: H[Aib]EGTFTSDLSKQMEEEAVREFIEWLKNK[Aib]LEFLEPL-NH2
modifications: N-terminus assumed
SMILES: CC[C@H](C)[C@H](NC(=O)[C@H](Cc1ccccc1)NC(=O)[C@H](CCC(=O)O)NC(=O)[C@H](CCCNC(=N)N)NC(=O)[C@@H](NC(=O)[C@H](C)NC(=O)[C@H](CCC(=O)O)NC(=O)[C@H](CCC(=O)O)NC(=O)[C@H](CCC(=O)O)NC(=O)[C@H](CCSC)NC(=O)[C@H](CCC(N)=O)NC(=O)[C@H](CCCCN)NC(=O)[C@H](CO)NC(=O)[C@H](CC(C)C)NC(=O)[C@H](CC(=O)O)NC(=O)[C@H](CO)NC(=O)[C@@H](NC(=O)[C@H](Cc1ccccc1)NC(=O)[C@@H](NC(=O)CNC(=O)[C@H](CCC(=O)O)NC(=O)C(C)(C)NC(=O)[C@@H](N)Cc1c[nH]cn1)[C@@H](C)O)[C@@H](C)O)C(C)C)C(=O)N[C@@H](CCC(=O)O)C(=O)N[C@@H](Cc1c[nH]c2ccccc12)C(=O)N[C@@H](CC(C)C)C(=O)N[C@@H](CCCCN)C(=O)N[C@@H](CC(N)=O)C(=O)N[C@@H](CCCCN)C(=O)NC(C)(C)C(=O)N[C@@H](CC(C)C)C(=O)N[C@@H](CCC(=O)O)C(=O)N[C@@H](Cc1ccccc1)C(=O)N[C@@H](CC(C)C)C(=O)N[C@@H](CCC(=O)O)C(=O)N1CCC[C@H]1C(=O)N[C@@H](CC(C)C)C(N)=O
B4: [Aib2,Glu21,Lys29,Aib30,Leu31,Glu32,Phe33,Leu34,Glu35,Leu36]-Exendin-4-(1-37)-peptide amide (peptide)
peptide: H[Aib]EGTFTSDLSKQMEEEAVREFIEWLKNK[Aib]LEFLELP-NH2
modifications: N-terminus assumed
SMILES: CC[C@H](C)[C@H](NC(=O)[C@H](Cc1ccccc1)NC(=O)[C@H](CCC(=O)O)NC(=O)[C@H](CCCNC(=N)N)NC(=O)[C@@H](NC(=O)[C@H](C)NC(=O)[C@H](CCC(=O)O)NC(=O)[C@H](CCC(=O)O)NC(=O)[C@H](CCC(=O)O)NC(=O)[C@H](CCSC)NC(=O)[C@H](CCC(N)=O)NC(=O)[C@H](CCCCN)NC(=O)[C@H](CO)NC(=O)[C@H](CC(C)C)NC(=O)[C@H](CC(=O)O)NC(=O)[C@H](CO)NC(=O)[C@@H](NC(=O)[C@H](Cc1ccccc1)NC(=O)[C@@H](NC(=O)CNC(=O)[C@H](CCC(=O)O)NC(=O)C(C)(C)NC(=O)[C@@H](N)Cc1c[nH]cn1)[C@@H](C)O)[C@@H](C)O)C(C)C)C(=O)N[C@@H](CCC(=O)O)C(=O)N[C@@H](Cc1c[nH]c2ccccc12)C(=O)N[C@@H](CC(C)C)C(=O)N[C@@H](CCCCN)C(=O)N[C@@H](CC(N)=O)C(=O)N[C@@H](CCCCN)C(=O)NC(C)(C)C(=O)N[C@@H](CC(C)C)C(=O)N[C@@H](CCC(=O)O)C(=O)N[C@@H](Cc1ccccc1)C(=O)N[C@@H](CC(C)C)C(=O)N[C@@H](CCC(=O)O)C(=O)N[C@@H](CC(C)C)C(=O)N1CCC[C@H]1C(N)=O
B5: [Aib2,Glu21,Lys29,Aib30,Leu31,Glu32,Phe33,Leu34,Leu36,Leu37]-Exendin-4-(1-37)-peptide amide (peptide)
peptide: H[Aib]EGTFTSDLSKQMEEEAVREFIEWLKNK[Aib]LEFLALL-NH2
modifications: N-terminus assumed
SMILES: CC[C@H](C)[C@H](NC(=O)[C@H](Cc1ccccc1)NC(=O)[C@H](CCC(=O)O)NC(=O)[C@H](CCCNC(=N)N)NC(=O)[C@@H](NC(=O)[C@H](C)NC(=O)[C@H](CCC(=O)O)NC(=O)[C@H](CCC(=O)O)NC(=O)[C@H](CCC(=O)O)NC(=O)[C@H](CCSC)NC(=O)[C@H](CCC(N)=O)NC(=O)[C@H](CCCCN)NC(=O)[C@H](CO)NC(=O)[C@H](CC(C)C)NC(=O)[C@H](CC(=O)O)NC(=O)[C@H](CO)NC(=O)[C@@H](NC(=O)[C@H](Cc1ccccc1)NC(=O)[C@@H](NC(=O)CNC(=O)[C@H](CCC(=O)O)NC(=O)C(C)(C)NC(=O)[C@@H](N)Cc1c[nH]cn1)[C@@H](C)O)[C@@H](C)O)C(C)C)C(=O)N[C@@H](CCC(=O)O)C(=O)N[C@@H](Cc1c[nH]c2ccccc12)C(=O)N[C@@H](CC(C)C)C(=O)N[C@@H](CCCCN)C(=O)N[C@@H](CC(N)=O)C(=O)N[C@@H](CCCCN)C(=O)NC(C)(C)C(=O)N[C@@H](CC(C)C)C(=O)N[C@@H](CCC(=O)O)C(=O)N[C@@H](Cc1ccccc1)C(=O)N[C@@H](CC(C)C)C(=O)N[C@@H](C)C(=O)N[C@@H](CC(C)C)C(=O)N[C@@H](CC(C)C)C(N)=O

Molecular target: human GLP-1 receptor (human, UniProt P43220)
Assay: cell-based or functional assay

B1 and B2 are within 1.5-fold of each other in “CRE luciferase EC50, 0% HSA” value: 0.023 nM for the first, 0.026 nM for the second.

B3 and B4 are within 1.5-fold of each other in “CRE luciferase EC50, 0% HSA” value: 0.032 nM for the first, 0.023 nM for the second.

For B5, the “CRE luciferase EC50, 0% HSA” value was 0.754 nM.

B1 and B2 are within 1.5-fold of each other in “CRE luciferase EC50, 1% HSA” value: 0.011 nM for the first, 0.012 nM for the second.

B3 and B4 are within 1.5-fold of each other in “CRE luciferase EC50, 1% HSA” value: 0.013 nM for the first, 0.01 nM for the second.

With B5 the “CRE luciferase EC50, 1% HSA” value was 0.388 nM.
